Laboratory results: US7524503B2, “Human cytomegalovirus (HCMV) cytotoxic T cell epitopes, polyepitopes compositions comprising same and diagnostic and prophylactic and therapeutic uses therefor” (priority 2001, dated 2009)

Columns and labels:
[1] = system: PBMC from healthy HCMV seropositive donors; test: IFN-γ ELISPOT assay; assay type: cell-based, human; details: for ELISPOT Responses (SFC/10^6 PBMC): peptide 10 μg/ml
Protocol: ELISPOT assay was used to assess whether stimulation of PBMC from a large panel of seropositive donors with HCMV peptides could induce IFN-γ expression in T cells. Briefly, a 96-well nitrocellulose plate (Multiscreen, Millipore) was coated overnight at 4° C. with mouse monoclonal antibody anti-IFN-γ IgG1 (10 μg/ml; Mabtech Nacka, Sweden). The plate was then washed six times in Phosphate Buffered Saline (PBS) and blocked for 1 hour at 37° C. with PBS supplemented with 5% FCS. The blocking solution was removed and PBMC from healthy HCMV seropositive donors were added at a concentration of 2.5×10^5 cells per well in growth medium. These cells were incubated for 18 h at 37° C. in a 5% CO2 atmosphere in the presence of synthetic peptides from HCMV antigens (10 μg/ml). After incubation, the plate was washed three times with PBS supplemented with 0.05% Tween, followed by three washes with PBS alone. Biotinylated anti-IFN-γ (Mabtech, Nacka Sweden) detection antibody was added to each well at a final concentration of 1 μg/ml in PBS. The plates were incubated at room temperature in the dark for 4 h and then washed, as described above. Streptavidin-Alkaline phosphatase (Sigma) was added to each well at a final concentration of 1 μg/ml in PBS and incubated at room temperature in the dark for 2 h. After a final wash with PBS, the substrate, 5-bromo-4-chloro-3-indolyl phosphate and nitro blue tetrazolium, was added to each well and the plates incubated for 30 min at RT. Cells that produced IFN-γ in response to the presence of peptide were detected as purple spots on the nitrocellulose membrane of each well. The spots were counted automatically using a closed-circuit camera (CCD) and ImagePro image analysis software or automated ELISPOT reader (AID, Germany). The T cell precursor frequency for each peptide was based on the total number of PBMC in the well and the number of peptide-specific spots per well, over an average of 3 wells. The number of peptide-specific spots was also calculated by subtracting the negative control values, which consisted of PBMC without peptide (an average of 3 wells), from the test wells.
To determine whether memory CTL responses against the predictive HCMV potential epitopes could be detected in healthy seropositive virus carriers, we used the ELISPOT assay, which allows rapid identification of CTL epitopes without prolonged in vitro culture.
We tested epitopes that were restricted for HLA A1, A3, A24, A26, B7, B8, B27, B35 and B44 in ELISPOT assays, to determine whether memory T cell responses could be detected in healthy HLA-matched virus carriers. PBMC from a cohort of healthy virus carriers (Table 2) were stimulated with individual peptides and the cells that produced IFN-γ were detected. CTL epitopes that were restricted through either HLA A1, A3, A24, A26, B7, B8 or B27, were identified.
Thus, a total of 450 peptides were produced. ELISPOT assays were used to determine whether ex vivo memory T cell responses could be detected in a cohort of 14 healthy virus carriers (Table 2). PBMC were stimulated with individual peptides and the cells that produced IFN-γ were detected.

HLA A2 = target: T1, HLA A2 (Homo sapiens, UniProt P04439, D140Y/D185E/D98H/E176V/E277Q/G131W/G231S/I119V/I121R/I166T/I218V/L300P/L318F/N151K/N90K/P208A/P217A/Q86G/Q94H/R138H/R169H/T345S); assay type: cell-based; details: HLA A2 on T2 cells; relative increase in HLA expression vs no peptide at 26° C.
T1 construct: endogenous in cells; host or cells: T2 cells

| Sequence | MSE (MHC stabilization efficiency) (HLA A2) | also measured |
| --- | --- | --- |
| KMSVRETLV (human cytomegalovirus pp150 CTL epitope peptide) | ++ (++ = 100-199%) | ELISPOT Responses (SFC/10^6 PBMC) ([1]; donor delta): SE(69) SFC/10^6 PBMC |
| MLNIPSINV [reference compound] | ++ (++ = 100-199%) | ELISPOT Responses (SFC/10^6 PBMC) ([1]; donor one): 178 SFC/10^6 PBMC; ELISPOT Responses (SFC/10^6 PBMC) ([1]; donor seven): 65 SFC/10^6 PBMC |
| LLIDPTSGL (human cytomegalovirus pp28 CTL epitope peptide) | + (+ = 51-99%) | ELISPOT Responses (SFC/10^6 PBMC) ([1]; donor beta): 77 SFC/10^6 PBMC; ELISPOT Responses (SFC/10^6 PBMC) ([1]; donor seven): 270 SFC/10^6 PBMC |
| TLLVLFIVYV (human cytomegalovirus US2 CTL epitope peptide) | − (− = 0-50%) | ELISPOT Responses (SFC/10^6 PBMC) ([1]; donor delta): SE(46) SFC/10^6 PBMC |
| YILEETSVM (human cytomegalovirus IE1 CTL epitope peptide) [reference compound] | ++ (++ = 100-199%) | ELISPOT Responses (SFC/10^6 PBMC) ([1]; donor seven): SB(764) SFC/10^6 PBMC |
| LLIPKSFTL (human cytomegalovirus pp71 CTL epitope peptide) | − (− = 0-50%) | – |
| NLALSTPFL (human cytomegalovirus IE2 CTL epitope peptide) | ++ (++ = 100-199%) | – |
| ILGADPLRV (human cytomegalovirus IE1 CTL epitope peptide) | ++ (++ = 100-199%) | – |
| LLNCAVTKL (human cytomegalovirus pp50 CTL epitope peptide) | ++ (++ = 100-199%) | ELISPOT Responses (SFC/10^6 PBMC) ([1]; donor delta): SE(59) SFC/10^6 PBMC |
| LMLLKNGTV (human cytomegalovirus gH CTL epitope peptide) | − (− = 0-50%) | ELISPOT Responses (SFC/10^6 PBMC) ([1]; donor seventeen): CJ(80) SFC/10^6 PBMC |
| RIFAELEGV [reference compound] | ++ (++ = 100-199%) | donors recognizing the epitope in ELISPOT ([1]; cohort of eight HLA A2-positive healthy seropositive donors): 5 of the 8; ELISPOT Responses (SFC/10^6 PBMC) ([1]; donor fifteen): CP(275) SFC/10^6 PBMC; ELISPOT Responses (SFC/10^6 PBMC) ([1]; donor six): 170 SFC/10^6 PBMC; ELISPOT Responses (SFC/10^6 PBMC) ([1]; donor ten): 236 SFC/10^6 PBMC |
| LLSEFCRVL (human cytomegalovirus IE1 CTL epitope peptide) | ++ (++ = 100-199%) | – |
| RLLQTGIHV [reference compound] | ++ (++ = 100-199%) | ELISPOT Responses (SFC/10^6 PBMC) ([1]; donor thirteen): BS(57) SFC/10^6 PBMC |
| ALFFFDIDL [reference compound] | ++ (++ = 100-199%) | – |
| FLMEHTMPV (human cytomegalovirus IE2 CTL epitope peptide) | ++ (++ = 100-199%) | ELISPOT Responses (SFC/10^6 PBMC) ([1]; donor ten): WS(137) SFC/10^6 PBMC |
| LLVEPCARV (human cytomegalovirus pp28 CTL epitope peptide) | ++ (++ = 100-199%) | – |
| NILQKIEKI (human cytomegalovirus pp150 CTL epitope peptide) | + (+ = 51-99%) | – |
| LLMMSVYAL (human cytomegalovirus gH CTL epitope peptide) | ++ (++ = 100-199%) | – |
| LLYPTAVDL (human cytomegalovirus gH CTL epitope peptide) | +++ (+++ = 200-300%) | – |
| ALVNFLRHL (human cytomegalovirus pp150 CTL epitope peptide) | ++ (++ = 100-199%) | ELISPOT Responses (SFC/10^6 PBMC) ([1]; donor ten): WS(57) SFC/10^6 PBMC |
| RIWCLVVCV (human cytomegalovirus gB CTL epitope peptide) | − (− = 0-50%) | ELISPOT Responses (SFC/10^6 PBMC) ([1]; donor fifteen): 105 SFC/10^6 PBMC; ELISPOT Responses (SFC/10^6 PBMC) ([1]; donor one): 108 SFC/10^6 PBMC |
| LIFGHLPRV (human cytomegalovirus gH CTL epitope peptide) | ++ (++ = 100-199%) | ELISPOT Responses (SFC/10^6 PBMC) ([1]; donor delta): SE(84) SFC/10^6 PBMC |

| Sequence | MSE (MHC stabilization efficiency) (HLA A2) | also measured |
| --- | --- | --- |
| TLLVYLFSL (human cytomegalovirus US3 CTL epitope peptide) | ++ (++ = 100-199%) | – |
| TLTEDFFVV (human cytomegalovirus gH CTL epitope peptide) | ++ (++ = 100-199%) | – |
| SLLSEFCRV (human cytomegalovirus IE1 CTL epitope peptide) | +++ (+++ = 200-300%) | ELISPOT Responses (SFC/10^6 PBMC) ([1]; donor ten): WS(471) SFC/10^6 PBMC |
| ALVNAVNKL (human cytomegalovirus pp150 CTL epitope peptide) | ++ (++ = 100-199%) | ELISPOT Responses (SFC/10^6 PBMC) ([1]; donor ten): WS(60) SFC/10^6 PBMC |
| LLLIVTPVV (human cytomegalovirus pp28 CTL epitope peptide) | ++ (++ = 100-199%) | – |
| YLFSLVVLV (human cytomegalovirus US3 CTL epitope peptide) | + (+ = 51-99%) | ELISPOT Responses (SFC/10^6 PBMC) ([1]; donor ten): WS(73) SFC/10^6 PBMC |
| LIEDFDIYV (human cytomegalovirus pp150 CTL epitope peptide) | ++ (++ = 100-199%) | ELISPOT Responses (SFC/10^6 PBMC) ([1]; donor ten): WS(88) SFC/10^6 PBMC |
| LLFRTLLVYL (human cytomegalovirus US3 CTL epitope peptide) | +++ (+++ = 200-300%) | ELISPOT Responses (SFC/10^6 PBMC) ([1]; donor seven): 76 SFC/10^6 PBMC; ELISPOT Responses (SFC/10^6 PBMC) ([1]; donor ten): 77 SFC/10^6 PBMC |
| LMQKFPKQV (human cytomegalovirus IE2 CTL epitope peptide) | + (+ = 51-99%) | – |
| LLVLFIVYV (human cytomegalovirus US2 CTL epitope peptide) | − (− = 0-50%) | ELISPOT Responses (SFC/10^6 PBMC) ([1]; donor ten): WS(92) SFC/10^6 PBMC |
| CLQNALDIL (human cytomegalovirus IE1 CTL epitope peptide) | ++ (++ = 100-199%) | ELISPOT Responses (SFC/10^6 PBMC) ([1]; donor delta): SE(490) SFC/10^6 PBMC |
| NLFPYLVSA (human cytomegalovirus gB CTL epitope peptide) | ++ (++ = 100-199%) | – |
| LMNGQQIFL | ++ (++ = 100-199%) | ELISPOT Responses (SFC/10^6 PBMC) ([1]; donor fifteen): 217 SFC/10^6 PBMC; ELISPOT Responses (SFC/10^6 PBMC) ([1]; donor ten): 751 SFC/10^6 PBMC |
| ILARNLVPM | ++ (++ = 100-199%) | ELISPOT Responses (SFC/10^6 PBMC) ([1]; donor delta): SE(170) SFC/10^6 PBMC |
| YLMDELRYV (human cytomegalovirus gH CTL epitope peptide) | ++ (++ = 100-199%) | – |
| QMLLALARL (human cytomegalovirus gB CTL epitope peptide) | + (+ = 51-99%) | – |
| QLRSVIRAL (human cytomegalovirus pp50 CTL epitope peptide) | − (− = 0-50%) | – |
| IILVAIAVV (human cytomegalovirus gB CTL epitope peptide) | + (+ = 51-99%) | – |
| FLLSHDAAL (human cytomegalovirus pp28 CTL epitope peptide) | ++ (++ = 100-199%) | – |
| ALDPYNEVV (human cytomegalovirus gH CTL epitope peptide) | +++ (+++ = 200-300%) | – |
| TMYGGISLL (human cytomegalovirus IE1 CTL epitope peptide) | ++ (++ = 100-199%) | – |
